Target: ZF9-MQ1 (synthetic)
Experiment: cell_activity; MYC mRNA down-regulation in A549 and HCC95, 72 h
Conditions: tags: NLS, MQ1 DNA methyltransferase, HA

Sequence of ZF9-MQ1 (synthetic) (chain, as listed by the source): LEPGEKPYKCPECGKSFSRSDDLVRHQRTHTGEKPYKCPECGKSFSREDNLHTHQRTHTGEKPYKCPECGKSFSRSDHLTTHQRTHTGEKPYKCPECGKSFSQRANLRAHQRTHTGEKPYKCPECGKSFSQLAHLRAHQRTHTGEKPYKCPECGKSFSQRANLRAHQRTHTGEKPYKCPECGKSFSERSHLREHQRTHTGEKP

B1: ZF9 target site in MYC promoter (dsDNA)
DNA 1: AGCAAAAGAAAATGGTAGGCG
DNA 2: CGCCTACCATTTTCTTTTGCT
B1 was tested, and the EC50 was 0.08 ug/ml LNP/mRNA.

From patent US20240132559, “COMPOSITIONS AND METHODS FOR MODULATING MYC EXPRESSION” (FLAGSHIP PIONEERING INNOVATIONS V, INC., published 2024)
